These results are taken from patent US20260069679A1.

Assay [1] addresses SS-L2-Aferr. The assay can be described thus: BLI, 1:1 fit. (In general: BLI is a label-free optical method that tracks binding on a fibre tip over time.)
Assay [2] addresses SS[change]. The assay is described as follows: BLI, 1:1 fit.
Assay [3] concerns the target MERS SS antigen (MERS-CoV EMC/2012) (UniProt K9N5Q8).
The target is the same in assay [4]. This is another data set of the same source.
The target is the same in assay [5]. The assay is described as follows: BLI, 1:1 fit.
Assay [6] has as its target MERS [change]\u0394RBD antigen (MERS-CoV EMC/2012). The assay is described as follows: BLI, 1:1 fit.

Read-outs that look alike come from different tables or passages of the source.

Consider CC40.8 (antibody), for which, in assay [1], the Kd (commonly the concentration at which binding is half-saturated) came to 312 pM and the kon (commonly the second-order rate constant of association) was determined as 229000 M⁻¹ s⁻¹. In assay [2], this substance showed a dissociation constant Kd of 1690 pM and a kon of 205000 M⁻¹ s⁻¹.
As to G4 (antibody), the maximum binding in assay [3] is 0.43 nm. The Kd worked out at 550 pM in assay [4]; 8.1 pM in assay [5]; 6.71 pM in assay [6]; 2.38 pM in assay [1]; 2.79 pM in assay [2]. Besides, the kon is 52200 M⁻¹ s⁻¹ in assay [5], 67400 M⁻¹ s⁻¹ in assay [6], 205000 M⁻¹ s⁻¹ in assay [1] and 175000 M⁻¹ s⁻¹ in assay [2].
